In general, Kd refers to the constant that tells how readily two partners part at equilibrium. Lower therefore signals tighter binding.

This passage reports binding result and Kd results from patent publication CN113637078A (WEST CHINA HOSPITAL SICHUAN UNIV, dated 2021).

The target in one experiment is p38α (UniProt Q16539 1-360, limits assumed). Put plainly: ELISA, antigen coated on plate, periplasmic extract of the nanobody, anti-FLAG detection, OD450. In general terms: An ELISA detects its analyte on a solid surface through an enzyme-linked reagent.
Sequence of p38α (Q16539 whole entry): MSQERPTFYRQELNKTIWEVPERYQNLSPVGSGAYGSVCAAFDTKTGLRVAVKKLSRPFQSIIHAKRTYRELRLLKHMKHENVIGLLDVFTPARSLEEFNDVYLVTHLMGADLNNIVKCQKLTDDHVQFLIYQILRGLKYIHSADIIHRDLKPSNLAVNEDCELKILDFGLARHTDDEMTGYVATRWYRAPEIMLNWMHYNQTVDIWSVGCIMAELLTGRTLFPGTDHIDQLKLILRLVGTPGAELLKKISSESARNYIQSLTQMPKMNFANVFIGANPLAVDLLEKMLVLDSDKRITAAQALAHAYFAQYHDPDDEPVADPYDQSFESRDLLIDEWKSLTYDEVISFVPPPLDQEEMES
The next experiment has as its target p38β (UniProt Q15759 1-364, limits assumed). The experiment is described as above.
Experiment [1] concerns the target T1, p38γ with 2×Strep tag (pET28a-p38γ-2×Strep) (Homo sapiens (Human), UniProt P53778 1-367).
T1 construct: Recombinant, from E. coli BL21(DE3); The tag is placed at the C-terminus only on the strength of the vector name; not shown: 2×Strep tag
T1 sequence: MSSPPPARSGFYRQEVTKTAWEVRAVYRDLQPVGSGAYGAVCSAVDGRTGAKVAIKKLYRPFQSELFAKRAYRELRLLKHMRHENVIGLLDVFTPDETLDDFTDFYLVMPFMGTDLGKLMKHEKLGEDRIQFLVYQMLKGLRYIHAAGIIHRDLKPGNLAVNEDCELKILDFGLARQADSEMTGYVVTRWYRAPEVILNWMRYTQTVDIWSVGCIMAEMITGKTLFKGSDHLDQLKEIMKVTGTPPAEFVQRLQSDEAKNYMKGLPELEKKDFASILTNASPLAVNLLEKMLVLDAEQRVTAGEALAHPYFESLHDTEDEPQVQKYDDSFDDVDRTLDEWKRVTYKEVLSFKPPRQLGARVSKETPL
The experiment is described as above.

For experiment [2], the target named is T2, 蛋白激酶p38δ with 2×Strep tag (pET28a-p38δ-2×Strep) (Homo sapiens (Human), UniProt O15264 1-365).
T2 construct: Recombinant, from E. coli BL21(DE3); The tag is placed at the C-terminus only on the strength of the vector name pET28a-p38γ/p38δ-2×Strep; Linkers and other vector residues are not described; not shown: 2×Strep tag
T2 sequence: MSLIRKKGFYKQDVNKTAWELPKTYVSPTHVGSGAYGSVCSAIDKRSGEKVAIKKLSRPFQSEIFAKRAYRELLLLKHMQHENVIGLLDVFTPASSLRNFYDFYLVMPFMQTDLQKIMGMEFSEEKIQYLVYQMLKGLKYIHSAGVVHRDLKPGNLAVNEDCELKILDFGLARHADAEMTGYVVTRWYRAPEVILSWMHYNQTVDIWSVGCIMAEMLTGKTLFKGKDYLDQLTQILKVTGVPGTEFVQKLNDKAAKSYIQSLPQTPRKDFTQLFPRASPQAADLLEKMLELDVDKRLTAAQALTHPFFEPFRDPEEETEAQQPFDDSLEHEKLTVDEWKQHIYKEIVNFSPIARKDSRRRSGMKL
Put plainly: indirect ELISA, p38δ coated, nanobody at 0-6.4 μM, anti-FLAG detection, 4-parameter fit.

Sequence of p38β (Q15759 whole entry): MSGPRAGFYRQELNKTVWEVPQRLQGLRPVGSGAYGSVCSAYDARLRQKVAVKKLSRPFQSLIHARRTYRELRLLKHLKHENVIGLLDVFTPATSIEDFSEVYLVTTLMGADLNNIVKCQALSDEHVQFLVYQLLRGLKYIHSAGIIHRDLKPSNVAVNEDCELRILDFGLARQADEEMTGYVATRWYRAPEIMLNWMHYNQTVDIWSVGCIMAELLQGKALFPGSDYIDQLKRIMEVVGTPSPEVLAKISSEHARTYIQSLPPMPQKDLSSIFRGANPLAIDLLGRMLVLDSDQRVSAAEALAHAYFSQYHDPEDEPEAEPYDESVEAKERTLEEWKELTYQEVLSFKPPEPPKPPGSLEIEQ

B1: 纳米抗体Nb13-6 (nanobody against protein kinase p38δ), C-terminal FLAG tag (VHH)
VHH: QVQLVESGGALVQPGGSLRLSCAASGLEPSMFSLRWYRQAPGKEREWVCGISKWFDDMSYEDSVKGRFTCSRDDARNTVYLQLNSLKPEDTAVYYCASLRPTFLPGLMRTRYWGQGTQVTVSS
notes: Expressed from pET22b in E. coli BL21(DE3); Used mostly as periplasmic extract; Other vector-derived residues are not described; also called 针对蛋白激酶p38δ的纳米抗体; not shown: FLAG tag fused at the C-terminus
On to B1, for which the binding result (with p38α; with p38β; in experiment [1]) was “no binding” in each case. The same molecule displayed a Kd in experiment [2] of 499 nM.
